Experiment [1] addresses SARS-CoV-2 spike protein N-terminal domain (NTD) (SARS-CoV-2, UniProt P0DTC2 14-305).
Experiment [2] has as its target SARS-CoV-2 spike protein receptor binding domain (RBD) (SARS-CoV-2, UniProt P0DTC2 319-541).
Experiment [3] deals with SARS-CoV-2 spike N-terminal domain (NTD), antigen of Example 10 (SARS-CoV-2, UniProt P0DTC2 14-305).
The target of experiment [4] is SARS-CoV-2 spike receptor binding domain (RBD), antigen of Example 10 (SARS-CoV-2, UniProt P0DTC2 319-541).
Experiment [5] has as its target Receptor binding domain (Neil King, University of Washington) (SARS-CoV-2, UniProt P0DTC2 328-531).

Numbering of substitutions follows the chain as printed.

As usually defined, the Kd is the equilibrium constant for the complex coming apart. Higher therefore signals a looser complex.

B1: IMPI-038 (antibody, V domains shown)
VH: QVQLVESGGGVVQPGRSLRLSCAASGFTFSSYGMHWVRQAPGKGLEWVAVISYDGSDKYYADSVKGRFTISRDNSKNTLYLQMNSLRAEDTAVYYCAKTVAGYYYYYYGMDVWGQGTTVTVSS
VL: DIQMTQSPSSVSASVGDRVTVTCRASQDISSWLAWFQQKPGKAPKFLIYDASNLENGVPSRFSGSGSGTDFTLTISSLQPEDFATYYCQQAKSFPWTFGQGTKVEIN
With B1, the Kd in experiment [1] amounted to 475 nM; in experiment [2] it was 0.826 nM.

B2: IMPI-067 (antibody, V domains shown)
VH: B1 VH with R16T, S30N, Y32F, D57S, T99D, V100E, A101G, G102D, Y104D, Y105D
VL: EIVLTQSPGSLSLSPGERATLSCRASQSLSSRYLAWYHQKPGQAPRLLIYGASSRATGIPDRFSGSGSGTDFTLTISGLEPEDFAVYYCQQYGNSITFGGGTKVEIK
For B2, the dissociation constant Kd in experiment [3] is 84.5 nM.

B3: IMPI-022 (antibody, V domains shown)
VH: EVQLVESGGGLVQPGRSLRLSCAASGFTFDDYAMHWVRQAPGKGLEWVSGITWNSGSIGYADSVKGRFTISRDNAKNSLYLHMNSLRVEDTALYYCAKDLQGDYYYYGVDVWGQGTTVTVSS
VL: AIQLTQSPSSLSASVGDRVTITCRASQGISSALAWYQQKPGKAPKLLLYDASSLVSGVPSRFSGSRSGTDFTLTISSLQPEDFATYYCQQFISYPLTFGGGTRVEIK
In experiment [1], B3 displayed a Kd of 603 nM.

B4: IMPI-027 (antibody, V domains shown)
VH: QVQLQESGPGLVKPSQTLSLTCTVSGGSISSYGYYWNWIRQHPGKGLEWIGYIYYSGSTYYNPSLKSRVTISVDTSKNQLSLRLNSVSAADTAVYYCARDFGGNSNYFDYWGQGTLVTVSS
VL: B3 VL with A25T, L48I, V55E, R66G, I92N, R103K
B4: the Kd was found to be 2910 nM in experiment [1] and 6.31 nM in experiment [2].

B5: IMPI-068 (antibody, V domains shown)
VH: QVQLVESGGDVVQPGRSLRLSCAASGFTFSRYGMHWVRQAPGKGLEWVAVISYDGSDKYYADSVKGRFTISRDNSKNTLYLQMNSLRAEDTAVYYCAKQLPLYYYYYGMDVWGQGTTVTVSS
VL: B3 VL with K45N, L48I, V55E, R66G, I92N, S93I, L96H, G100P, R103K, E105D
For the molecule B5, the Kd in experiment [3] stood at 2570 nM; in experiment [4], 9.47 nM.

B6: IMPI-024 (antibody, V domains shown)
VH: EVQLVQSGAEVKKPGESLKISCKGSGYSFTSYWIGWVRQMPGKGLEWMGIIYPGDSDTRYSPSFQGQVTISADKSISTAYLQWSSLKASDTAMYYCVRSYNWNYFDYWGQGTLVTVSS
VL: B3 VL with A32G, P40A, L48I, A51V, V55E, R66G, I92L, L96W, G100Q, R103K
As for B6, the dissociation constant (Kd) was 660 nM in experiment [1] and 1.16 nM in experiment [2].

B7: IMPI-033 (antibody, V domains shown)
VH: B4 VH with N37S, I71M
VL: B3 VL with K45N, L48I, V55E, R66G, I92N, Y94S, R103K
Regarding B7, the figures for the Kd in experiment [1] and in experiment [2] were 1820 nM and 3.02 nM, respectively.

B8: IMPI-055 (antibody, V domains shown)
VH: QVQLVQSGAEVKKPGASVKVSCKASGYTFTSYDINWVRQATGQGLEWMGWMNPNSGNTGYAQKFQGRVTMTRDTSINTAYMELSSLRSEDTAVYFCARGGRYCSDVTCYSGEPFDYWGQGTLVTVSS
VL: EIMLTQSPDFQSVTPKEKVTITCRASQSIGSSLHWYQQKPDQSPKLLIKFASQSISGVPSRFSGSGSGTDFTLTINSLEAEDAAAYYCHQSSSLPHTFGPGTKVEIK
For the molecule B8, the figures for the dissociation constant (Kd) in experiment [3] and in experiment [4] were 1360 nM and 1.85 nM, respectively.

B9: IMPI-055 (antibody, V domains shown)
VH: B8 VH
VL: B8 VL
With B9, the Kd in experiment [5] was under 1 nM.

B10: IMPI-059 (antibody, V domains shown)
VH: EVQLVESGGGLIQPGGSLRLSCAASGFTVSSIYMSWVRQAPGKGLEWVSIIYSRGSTDYADSVKGRFTISRDISKNTLYLQMNSLRAEDTAVYYCARDGTMVRGVHAFDIWGQGTMVTVSS
VL: DIQMTQSPPSLSASIGDRVTITCQASQDISNYLNWYQQKPGKAPKLLIYDASNLETGVPSRFSGSGSGTDFTLTISNLQPEDIVTYYCQQYDNLPSSFGQGTKLEIK
On to B10, for which the figures for the dissociation constant Kd in experiment [3] and in experiment [4] were 1650 nM and 2.3 nM, respectively.

B11: IMPI-006 (antibody, V domains shown)
VH: QLQLQESGPGLVKPSETLSLTCTVSGGSISNSNYYWGWIRQPPGKGLEWIGSIYYSGRTYYNPSLKSRVTISVDTSKNQFSLKLSSVTAADTAVYYCARMGLLWFGEFYGMDVWGQGTTVTVSS
VL: DIQMTQSPSSLSASVGDRVTITCRASQGISSWLAWYQQKPEKAPKSLIYDASSLQRGVPSRFSGSGSGTDFTLTISSLQPEDFASYYCQQYNSYPLTFGGGTRVEIK
For the molecule B11, in experiment [5], the equilibrium dissociation constant (Kd) was under 1 nM.

B12: IMPI-017 (antibody, V domains shown)
VH: EVQLVESGGGLIQPGGSLRLSCAAAGLTVSSNYMNWVRQVPGKGLEWVSVIYSGGSTYYADSVKGRFTISRDNSKNTLYLQMNSLRAEDTAVYYCARDLGTLGMDVWGQGTTVTVSS
VL: DIQLTQSPSFLSASVGDRVTITCWASQGISTYLAWYQQKPGKAPKLLIYAASTLQSGVPSRFSGSGSGTEFTLTISSLQPEDFATYYCQQLNSYLPTFGQGTKVEIK
Regarding B12, the Kd in experiment [1] came to 1050 nM; in experiment [2], 2.25 nM.

B13: IMPI-037 (antibody, V domains shown)
VH: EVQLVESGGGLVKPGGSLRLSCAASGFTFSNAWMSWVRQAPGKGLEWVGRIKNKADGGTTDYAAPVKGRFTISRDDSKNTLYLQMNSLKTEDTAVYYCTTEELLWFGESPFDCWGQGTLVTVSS
VL: B12 VL with S30N, T31S, A84T, L91F, S93D, L95P, P96R, Q100P
Take B13: in experiment [2], the Kd was found to be 22.3 nM. In other words, the double-digit nanomolar range.

B14: IMPI-060 (antibody, V domains shown)
VH: B12 VH with A25S, L27V, N35S, V40A, Y58F, G100S, T101Y, L102Y
VL: B12 VL with T31S, R61K, L95P, P96S, T97S, V104L
In experiment [4], B14 registered a dissociation constant (Kd) of 141 nM.

B15: IMPI-029 (antibody, V domains shown)
VH: B12 VH with A25S, L27V, V40A, Y79F, T90S, T101P, L102Y, M104V
VL: B12 VL with T31S, Q90E, L95P, P96L, K103R, V104L
In experiment [5], B15 displayed an equilibrium dissociation constant (Kd) of under 1 nM.

B16: IMPI-056 (antibody, V domains shown)
VH: B12 VH with A25S, V40A, G44K, Y58F, K64R, Y79F, T90S, T101P, L102Y, M104V
VL: B12 VL with T31S, L95P, P96L, K103R, V104L
As to B16, the Kd in experiment [3] was determined as 682 nM; in experiment [4] it was 1.59 nM.

B17: IMPI-029 (antibody, V domains shown)
VH: B12 VH with A25S, L27V, V40A, Y79F, T90S, T101P, L102Y, M104V
VL: B12 VL with T31S, Q90E, L95P, P96L, K103R, V104L
Take B17: the Kd in experiment [1] came out at 219 nM; in experiment [2], 0.446 nM.

B18: IMPI-056 (antibody, V domains shown)
VH: B12 VH with A25S, V40A, G44K, Y58F, K64R, Y79F, T90S, T101P, L102Y, M104V
VL: B12 VL with T31S, L95P, P96L, K103R, V104L
As for B18, in experiment [5], the Kd was under 1 nM.

B19: IMPI-021 (antibody, V domains shown)
VH: B12 VH with A25S, L27V, N35S, V40A, Y58F, G100S, T101Y, L102Y
VL: B12 VL with T31S, R61K, L95P, P96C, T97S, V104L
In experiment [2], B19 registered a dissociation constant Kd of 14.7 nM. This lies in the double-digit nanomolar range.

B20: IMPI-047 (antibody, V domains shown)
VH: B12 VH with A25S, L27F, V40A, A87T, G100V, T101A, L102Y
VL: B12 VL with T31S, L46V, Q90L, Y94N, L95P, P96L, Q100G
Take B20: the Kd in experiment [1] amounted to 2320 nM; in experiment [2], 6.65 nM.

B21: IMPI-042 (antibody, V domains shown)
VH: EVQLVESGGGLIQPGGSLRLSCAASGLTVSSNYMSWVRQAPGKGLEWVSIIYSGGSTYYADSVKGRFTISRDNSKNTLYLQMNSLRAEDTAVYYCARLGGYYYYGMDVWGQGTTVTVSS
VL: DIQMTQSPSSLSASVGERVTITCQASQDIRNYLNWYQKKPGKAPKLLIYDSSNLETGVPSRFSGGGSGTDFTFTISSLQPEDIATYYCQQYDNLPITFGQGTRLEIK
Turning to B21, the figures for the dissociation constant (Kd) in experiment [1] and in experiment [2] were 662 nM and 1.87 nM, respectively.

B22: IMPI-054 (antibody, V domains shown)
VH: B21 VH
VL: B21 VL with G65S
Turning to B22, the Kd amounted to 602 nM in experiment [3] and 2.06 nM in experiment [4].

The values above are taken from patent publication US20250026813A1 (published 2025).
